The values that follow come from PMC10667646.

This data set concerns the target T1, His-Lmo2795 (RpiR-family transcriptional regulator) (Listeria monocytogenes) (UniProt Q8Y3P0).
T1 sequence: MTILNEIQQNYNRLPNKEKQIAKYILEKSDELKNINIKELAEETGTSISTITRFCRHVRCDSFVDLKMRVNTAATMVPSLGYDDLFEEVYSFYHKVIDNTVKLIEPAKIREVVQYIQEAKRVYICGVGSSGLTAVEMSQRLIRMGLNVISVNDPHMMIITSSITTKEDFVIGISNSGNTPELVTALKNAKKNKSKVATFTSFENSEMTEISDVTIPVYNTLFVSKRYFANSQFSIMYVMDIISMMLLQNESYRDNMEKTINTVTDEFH
The data set can be described thus: EMSA. Conditions: 10 mM Tris-HCl pH 7.5, 50 mM NaCl, 10% glycerol, 5 mM EDTA, 20 mM DTT, 25 C, 20 min; 8% native PAGE in 0.5x TBE at 4 C.

Take “CTTTAATATCCTCTAAGCCAGCATTTTTGATTTTTTTCTGTAGCACCGTCGCGCCCATTGCACTGGATCCAAGCCCCGCATCACAAGCATAGGCGATTCTTTTAACATTTTTAAAATTAAAATCATCTACTGGAGCTTCGAAAACAGAGGAAATACTACTTTTTTTGCCTTTAAGACCTTCCATTTTCTTCGCTGCATCTTG (double strand) [unspecific control, region within the lmo2795-nanE operon]”: the binding result is “no binding”.

Regarding “CGGAACACCCAACAAATTACCAATCGAATAAACTAAAAAAGTCCTTTCAAACGAAAGGACTTTTTATTTTTAACAACAACGTCATTTTTTAAAGCTAGTTTCCGCAACTATCCACGCTAAAATATGAAAATCATTTTCATTTAATCGATATTGATAAAATCATTTTCTTGTGATATAGTCTGTTTGAAAACGCATACTTTACACTGAAACACAGTATAGAGGAGGAGTATCAGTGGGCAATTCTGTTATGGAAAAAATCAAAGGTGGGTTAG (double strand) [lmo2795-nanE operon upstream (promoter) region]”, the binding result is “binds”.
